The data set concerns the target T1, AP2-HC D1 (Plasmodium falciparum, UniProt Q8IKR9 1316-1374).
T1 sequence: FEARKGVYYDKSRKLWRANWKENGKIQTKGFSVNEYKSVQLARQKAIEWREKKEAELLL
The experiment in a line: gcPBM; about 25 ug protein; PBS, 1% milk, 0.2 mg/ml BSA, salmon testes DNA, 0.03% Triton X-100. As to conditions: tags: N-terminal GST (pGEX-4T-1), kept; label: surface-attached array probe.

The values that follow come from PMC11417369, “DNA sequence and chromatin differentiate sequence-specific transcription factor binding in the human malaria parasite Plasmodium falciparum”.

B1: CACACA_site4209 (dsDNA)
DNA 1: TATATATATGGACACACACACACCAAAGCGTAGCGC
DNA 2: GCGCTACGCTTTGGTGTGTGTGTGTCCATATATATA
Turning to B1, the binding signal was 10.3 ln median PBM intensity, better of two orientations.

B2: CACACA_site498 (dsDNA)
DNA 1: TACACCCACCAACACACACACACACCCAAAAAAAAA
DNA 2: TTTTTTTTTGGGTGTGTGTGTGTGTTGGTGGGTGTA
On to B2, for which the binding signal was 10.5 ln median PBM intensity, better of two orientations.

B3: CACACA_site9254 (dsDNA)
DNA 1: TTAATAAATATCAATACACACACACTAATGTGAATA
DNA 2: TATTCACATTAGTGTGTGTGTATTGATATTTATTAA
Take B3: the binding signal is 10.1 ln median PBM intensity, better of two orientations.

B4: CACACA_site6202 (dsDNA)
DNA 1: CTCATCCTTACATACACACACATATATTTATTTATA
DNA 2: TATAAATAAATATATGTGTGTGTATGTAAGGATGAG
Turning to B4, the binding signal is 10.2 ln median PBM intensity, better of two orientations.

B5: CACACA_site7630 (dsDNA)
DNA 1: ATTATACACGCGCGCACACACAACAAAAAAAAAAAA
DNA 2: TTTTTTTTTTTTGTTGTGTGTGCGCGCGTGTATAAT
As to B5, the binding signal was 10.3 ln median PBM intensity, better of two orientations.

B6: CACACA_site1177 (dsDNA)
DNA 1: TTAATTTATAAAAACACACACAGGTAAAAAGGTGCA
DNA 2: TGCACCTTTTTACCTGTGTGTGTTTTTATAAATTAA
For the molecule B6, the binding signal was 10.3 ln median PBM intensity, better of two orientations.

B7: CACACA_site8596 (dsDNA)
DNA 1: AATGTGTATATATATACACACACATATATATATTTT
DNA 2: AAAATATATATATGTGTGTGTATATATATACACATT
For B7, the binding signal is 10.1 ln median PBM intensity, better of two orientations.

B8: CACACA_site1745 (dsDNA)
DNA 1: CACATACAGACATACACACATACACATATACGCATA
DNA 2: TATGCGTATATGTGTATGTGTGTATGTCTGTATGTG
For B8, the binding signal was 10.2 ln median PBM intensity, better of two orientations.

B9: CACACA_site7688 (dsDNA)
DNA 1: AATATAAATAAAAACACACACAATGGTACCTATATA
DNA 2: TATATAGGTACCATTGTGTGTGTTTTTATTTATATT
For B9, the binding signal is 10.3 ln median PBM intensity, better of two orientations.

B10: CACACA_site4316 (dsDNA)
DNA 1: TGAATAAATCAAAGCACACATACACAGACATATATA
DNA 2: TATATATGTCTGTGTATGTGTGCTTTGATTTATTCA
B10: the binding signal is 10.4 ln median PBM intensity, better of two orientations.

B11: CACACA_site65 (dsDNA)
DNA 1: CATGTAATATTAAACACACACTCATATAACACAATA
DNA 2: TATTGTGTTATATGAGTGTGTGTTTAATATTACATG
For B11, the binding signal was 10.2 ln median PBM intensity, better of two orientations.

B12: CACACA_site1542 (dsDNA)
DNA 1: AATGTACAAATACGTACACACATATATATATATATA
DNA 2: TATATATATATATATGTGTGTACGTATTTGTACATT
Regarding B12, the binding signal was 10.2 ln median PBM intensity, better of two orientations.

B13: CACACA_site1431 (dsDNA)
DNA 1: AAAAAAAAAAAAAATACACACAAATAATAAAAATAA
DNA 2: TTATTTTTATTATTTGTGTGTATTTTTTTTTTTTTT
Regarding B13, the binding signal is 10.1 ln median PBM intensity, better of two orientations.

B14: CACACA_site8543 (dsDNA)
DNA 1: ATTAATATATAACGTGCACACACACCGTTACGTATG
DNA 2: CATACGTAACGGTGTGTGTGCACGTTATATATTAAT
With B14, the binding signal was 10.3 ln median PBM intensity, better of two orientations.

B15: CACACA_site9385 (dsDNA)
DNA 1: AATATATGTTTAATTTCACACACAAATATACATTTT
DNA 2: AAAATGTATATTTGTGTGTGAAATTAAACATATATT
For the molecule B15, the binding signal was 10.2 ln median PBM intensity, better of two orientations.

B16: CACACA_site7641 (dsDNA)
DNA 1: TACATACACAGACACACACACATATAAATATAAATA
DNA 2: TATTTATATTTATATGTGTGTGTGTCTGTGTATGTA
For the molecule B16, the binding signal is 10.4 ln median PBM intensity, better of two orientations.

B17: CACACA_site2250 (dsDNA)
DNA 1: GAAAGAATAAAATTTACACACATATATATATACATA
DNA 2: TATGTATATATATATGTGTGTAAATTTTATTCTTTC
Regarding B17, the binding signal is 9.82 ln median PBM intensity, better of two orientations.

B18: CACACA_site8859 (dsDNA)
DNA 1: ACGATGTTCATCACTACACACACAAAGAAATATATA
DNA 2: TATATATTTCTTTGTGTGTGTAGTGATGAACATCGT
As to B18, the binding signal is 10.1 ln median PBM intensity, better of two orientations.

B19: CACACA_site8256 (dsDNA)
DNA 1: AAATAAAGCACACCGACACACACATATATATATATA
DNA 2: TATATATATATATGTGTGTGTCGGTGTGCTTTATTT
On to B19, for which the binding signal was 10.4 ln median PBM intensity, better of two orientations.

B20: CACACA_site1016 (dsDNA)
DNA 1: AAATAATGGTTAGCTACACACAAAGCATTTTTTGAA
DNA 2: TTCAAAAAATGCTTTGTGTGTAGCTAACCATTATTT
Take B20: the binding signal is 9.81 ln median PBM intensity, better of two orientations.

B21: CACACA_site4030 (dsDNA)
DNA 1: AAGGAAATATAATATACACACATAAGTGTACTTATA
DNA 2: TATAAGTACACTTATGTGTGTATATTATATTTCCTT
Regarding B21, the binding signal is 9.82 ln median PBM intensity, better of two orientations.

B22: CACACA_site6756 (dsDNA)
DNA 1: ACAAATAAAAAAATTACACACATATAAAATATAGAT
DNA 2: ATCTATATTTTATATGTGTGTAATTTTTTTATTTGT
Turning to B22, the binding signal was 10.1 ln median PBM intensity, better of two orientations.

B23: CACACA_site6324 (dsDNA)
DNA 1: CATAAATCAGCCATAACACACATACCTATATACATA
DNA 2: TATGTATATAGGTATGTGTGTTATGGCTGATTTATG
With B23, the binding signal was 10.3 ln median PBM intensity, better of two orientations.

B24: CACACA_site8083 (dsDNA)
DNA 1: AAAAAAAAAAAAAAAACACACACATGCACATCATAT
DNA 2: ATATGATGTGCATGTGTGTGTTTTTTTTTTTTTTTT
Regarding B24, the binding signal is 10.4 ln median PBM intensity, better of two orientations.

B25: CACACA_site1421 (dsDNA)
DNA 1: AAAAGTAACAAAGCTACACACATTTAAATAAACATA
DNA 2: TATGTTTATTTAAATGTGTGTAGCTTTGTTACTTTT
In the case of B25, the binding signal is 9.84 ln median PBM intensity, better of two orientations.

B26: CACACA_site8848 (dsDNA)
DNA 1: ATATAAATTTTTTATGAACACACAAATACAGACACT
DNA 2: AGTGTCTGTATTTGTGTGTTCATAAAAAATTTATAT
On to B26, for which the binding signal is 10.3 ln median PBM intensity, better of two orientations.

B27: CACACA_site8569 (dsDNA)
DNA 1: CTTTAATATTTTATTTCACACACATAAATGCCCCAA
DNA 2: TTGGGGCATTTATGTGTGTGAAATAAAATATTAAAG
As for B27, the binding signal is 9.84 ln median PBM intensity, better of two orientations.

B28: CACACA_site6959 (dsDNA)
DNA 1: GTTTCCTTAATATTCACACACATATCTATAATATAT
DNA 2: ATATATTATAGATATGTGTGTGAATATTAAGGAAAC
On to B28, for which the binding signal is 10.2 ln median PBM intensity, better of two orientations.

B29: CACACA_site3184 (dsDNA)
DNA 1: TACTAAAACCCATACACACACATATATATAGTACCA
DNA 2: TGGTACTATATATATGTGTGTGTATGGGTTTTAGTA
Consider B29, for which the binding signal is 10.2 ln median PBM intensity, better of two orientations.

B30: CACACA_site5095 (dsDNA)
DNA 1: ACATCATTTTTATGTACACACACATATACGTTGAAT
DNA 2: ATTCAACGTATATGTGTGTGTACATAAAAATGATGT
In the case of B30, the binding signal is 10.2 ln median PBM intensity, better of two orientations.

B31: CACACA_site7028 (dsDNA)
DNA 1: CATACATACATACATACACACATATATAAATATATG
DNA 2: CATATATTTATATATGTGTGTATGTATGTATGTATG
As for B31, the binding signal was 10.2 ln median PBM intensity, better of two orientations.

B32: CACACA_site9055 (dsDNA)
DNA 1: ATATATATATATATTGTACACACATTTATGCATATA
DNA 2: TATATGCATAAATGTGTGTACAATATATATATATAT
With B32, the binding signal was 10.3 ln median PBM intensity, better of two orientations.

B33: CACACA_site7567 (dsDNA)
DNA 1: TGCAACAAAATAAACACACACACACTAACACAAAAA
DNA 2: TTTTTGTGTTAGTGTGTGTGTGTTTATTTTGTTGCA
On to B33, for which the binding signal was 10.5 ln median PBM intensity, better of two orientations.

B34: CACACA_site8866 (dsDNA)
DNA 1: CCGCCATTGTACCATCCACACACATATATATATGTA
DNA 2: TACATATATATATGTGTGTGGATGGTACAATGGCGG
Consider B34, for which the binding signal is 10.3 ln median PBM intensity, better of two orientations.

B35: CACACA_site1501 (dsDNA)
DNA 1: TAATAATAATTATATACACACATGTATATTATATTT
DNA 2: AAATATAATATACATGTGTGTATATAATTATTATTA
Regarding B35, the binding signal was 9.81 ln median PBM intensity, better of two orientations.

B36: CACACA_site269 (dsDNA)
DNA 1: AAATAATTCAAAAAAACACACAAATTACAAAATAAA
DNA 2: TTTATTTTGTAATTTGTGTGTTTTTTTGAATTATTT
With B36, the binding signal is 10.2 ln median PBM intensity, better of two orientations.

B37: CACACA_site7791 (dsDNA)
DNA 1: AAAATTAACCGTAACACACACACATATAAATATGTA
DNA 2: TACATATTTATATGTGTGTGTGTTACGGTTAATTTT
Take B37: the binding signal was 10.4 ln median PBM intensity, better of two orientations.

B38: CACACA_site8 (dsDNA)
DNA 1: TTTATAATTTATATCACACACATATATATATAGTAA
DNA 2: TTACTATATATATATGTGTGTGATATAAATTATAAA
Consider B38, for which the binding signal was 9.83 ln median PBM intensity, better of two orientations.

B39: CACACA_site3383 (dsDNA)
DNA 1: ATATTAAACAAACACACACACATATATATATATATA
DNA 2: TATATATATATATATGTGTGTGTGTTTGTTTAATAT
As to B39, the binding signal was 10.2 ln median PBM intensity, better of two orientations.

B40: CACACA_site9374 (dsDNA)
DNA 1: TATAGAATAATCTATAAACACACAAACACAACAAAA
DNA 2: TTTTGTTGTGTTTGTGTGTTTATAGATTATTCTATA
In the case of B40, the binding signal is 10.1 ln median PBM intensity, better of two orientations.

B41: CACACA_site5932 (dsDNA)
DNA 1: GCATTGTCCATGCGCACACACTACTAGAATAATATG
DNA 2: CATATTATTCTAGTAGTGTGTGCGCATGGACAATGC
On to B41, for which the binding signal is 10.2 ln median PBM intensity, better of two orientations.
